Consider 24 molecules from patent US20210371503A1 (UNIVERSITY OF COLOGNE, published 2021).

Changes are numbered by the printed parent chain.

To fix the notation:
B1: HbnC4t1p1_D5 (antibody, V domains shown)
VH: EVQLVESGGGLVQPGRSLRLSCAASGFTFDDYAMHWVRQAPGKGLEWVSGISWNSGSIGYADSVKGRFTISRDNAKNSLYLQMNSLRAEDTGLYYCAKDINYDSGGYHKNYFDYWGQGTLVTVSS
VL: DIQMTQSPSSLSASVGDRATITCRASQSISSYLNWYQEKPGKAPKLLIYAASSLQSGVPSRFSGSGSGTDFTLTISSLQPEDFATYYCQQSYSNPLTFGGGTKVEIK
B2: HbnC3t1p1_G4 (antibody, V domains shown)
VH: EVQLVESGGGLVQPGGSLRLSCAASGFTVSSNYMSWVRQAPGKGLEWVSVIYSGGSTFYADSVKGRFTISRDNSKNTLYLQMNSLRAEDTAVYYCARDFGDFFFDYWGQGTLVTVSS
VL: EIVLTQSPGTLSLSPGERATLSCRASQSVSSYLAWYQQKPGQAPRLLIYGVSSRATGIPDRFSGSGSGTDFTLTISRLEPEDFAVYYCQQYGSSPRTFGQGTKVEIK
B3: HbnC3t1p2_B10 (antibody, V domains shown)
VH: B2 VH with T28I, F99Y, F102Y
VL: B2 VL with Y49S, V51A, T56A, S76N, V104L
B4: HbnC2t1p2_D9 (antibody, V domains shown)
VH: QVQLVESGGGVVQPGRSLRLSCAASGFTFSSYGMHWVRQAPGKGLEWVAVIWYDGRNKYYVDSVKGRFTISRDNSKNTLYLQISSLRAEDTAVYYCARAARRPVVTDTMAYYMDVWGKGTTVTVSS
VL: EIVLTQSPATLSLSPGERATLSCRASLSLSSYLAWYQQKPGQAPRLLIYDASNRATGIPARFSGSGSGTDFTLTISSLEPEDFAVYYCQQRSNWPPTWTFGQGTKAEIKR
B5: HbnC3t1p1_C6 (antibody, V domains shown)
VH: QMQLVQSGPEVKKPGTSVKVSCKASGFTFTSSAVQWVRQARGQRLEWIGWIVVGSGNTNYAQKFQERVTITRDMSTSTAYMELSSLRSEDTAVYYCAAPHCSSTICYDGFDIWGQGTMVTVSS
VL: not shown
B6: HbnC3t1p2_C6 (antibody, V domains shown)
VH: B5 VH with T30S, E66G, S77R, V93M, H100Y, I105R, G109A
VL: not shown
B7: FnC1t2p1_G5 (antibody, V domains shown)
VH: QVQLVQSGSELKKPGASVKVSCKASGYTFLRFAMNWLRQAPGQGLEWMGWIDTNTGTPTYAQGFTGRFVFSLDTSVSTAYLQISSLKAEDTAVYYCARSLRGANLVPWGQGTLVTVSS
VL: DIQMTQSPSSLSASVGDRVTITCQASQDVSNYLNWYQQQPGKAPKLLIYDAFNLETGVPSRFSGSGSGTDFTFTISSLQPEDIATYYCQQYDNLPLTFGGGTKVEIK
B8: HbnC3t1p1_F4 (antibody, V domains shown)
VH: QVQLVESGGGVVQPGRSLRLSCAATGFTFRRYGMHWVRQAPGKGLEWVAGILFDGSNKYYVDSVKGRFTISRDSSRNTLYLQLNSLRREDTAVYYCAKGGDYEWELLESWGQGTLVTVSS
VL: DIQMTQSPSTVSASVGDRVTITCRASQSIDNWLAWYQEKPGKAPKVLIYKASSLESGVPSRFSGRGSGTEFTLTISSLQPGDFATYYCQHYHSFPLTFGGGTKVDIK
B9: MnC2t1p1_A3 (antibody, V domains shown)
VH: EVQLVESGGGLVQPGGSLRLSCAASGFTVSSNYMSWVRQAPGRGLEWVSVIYSGGSTFYADSVKGRFTISRDNSKNTLYLQMNSLRPEDTAVYYCATGARFGESPFDYWGQGTLVTVSS
VL: DIQMTQSPSSVSASVGDRVTITCRASQGISSWLAWYQQKPGKAPKLLIYAASSLQSGVPSRFSGSGSGTDFTLTISSLQPEDFATYYCQQANSFPGTFGQGTKVEIK
B10: MnC2t1p1_C5 (antibody, V domains shown)
VH: B9 VH with R43K, F58Y, P87A
VL: B9 VL
B11: MnC4t2p1_B3 (antibody, V domains shown)
VH: EVQLVESGGHLVQPGRSLRLSCAASGFTFDDYAMHWVRQVPGKGLEWVSGISWNGGILDYADSVKGRFTISRDNAKNSLYLHMRSLRTDDTALYYCAKDLRRQDYYADWYFDLWGRGTLVTVSS
VL: DIQMIQSPSSVSASVGDRVTITCRASQGISSWLAWYQQKPGKAPKLLIYAASTLLSAVPSRFSGSGSGTDFTLTISSLQPEDFATYYCQQGNSFPFTFGPGTIVDV
B12: MnC2t2p1_C11 (antibody, V domains shown)
VH: QVQLVQSGAEVKKPGSSVKVSCKASGGTFSRYTIIWVRQAPGQGLEWMGRIIPILDIANYAQKFQGRVTITADKSTSTAYMELSSLRSEDTAVYYCAREGGLDYFGSRNSGWTYTWFDPWGQGTLVTVSS
VL: DIQMTQSPSSLSASVGDRVTITCRASQNISSYLNWYQQKPGKAPNLLIYAASSLQSGVPPRFSGSGSGTDFTLTISSLQPEDFATYYCQQSYSTLYSFGQGTKLEIK
B13: MnC1t3p1_G9 (antibody, V domains shown)
VH: EVQLLESGGGLVQPGGSLRLSCAASGFTFRNYAMTWVRQAPGKGLEWVSGISDSGDRTYNADSVKGRFSISRDNSKNTLHLQMNSLRAEDTAVYYCALASGSYFGGANYWGQGTLVTVSS
VL: QAVVTQEPSLTVSPGGTVTLTCGSSTGPVTSDHYPYWFQQKPGQAPTTLIYDTNNKHSWTPARFSGSLLGGKAALTLSGAQPEDEAEYYCLLSYTGARVFGGGTKLTVL
B14: MnC4t1p1_A11 (antibody, V domains shown)
VH: EVQLVESGGGLVQPGGSLRLSCAASGFTFSSYSMNWVRQAPGKGLEWVSYISSSSNTRYYTDSVMGRFTISRDNAKNSLFLQMNSLRAEDTAVYYCASSKGFCSGGSCSDYWGQGTLVTVSS
VL: EIVLTQSPGTLSLSPGERATLSCRASQSVSSSYLAWYQQKPGQAPRLLIYGVSSRATGIPDRFSGSGSGTDFTLTISRLEPEDFVVYYCHQYGSSPWTFGQGTKVEIK
B15: MnC5t2p1_G1 (antibody, V domains shown)
VH: B5 VH with N59D, M74V, H100R, S103G, T104G, I105S
VL: B14 VL with Q39H, Y50C, V52A, D71G, V85A, H90Q
B16: MnC4t2p1_E6 (antibody, V domains shown)
VH: B11 VH with D59G, H82Q
VL: B11 VL with I5T, I103K
B17: CnC2t1p1_B4 (antibody, V domains shown)
VH: QVQLVQSGAEVKKPGASVKVSCKASGYTFTSYGISWVRQAPGQGLEWMGWISAYNGNTNYAQKLQGRVTMTTDTSTSTAYMELRSLRSDDTAVYYCARDGELLGWFDPWGQGTLVTVSS
VL: QSALTQPASVSGSPGQSITISCTGTSSDVGSYNLVSWYQQHPGKAPKLMIYEGSKRPSGVSNRFSGSKSGNTASLTISGLQAEDEADYYCCSYAGSSTWVFGGGTKLTVL
B18: CnC2t1p1_E8 (antibody, V domains shown)
VH: QVQLVQSGAEVKNPGASVKVSCKASGYIFTNYYIHWVRQAPGQGLEWVGWIHSLSGGTSYAQKFQGRVTLTRDASIRTAYMELSRLGSDDTALYYCARASVSTITDFDYWGQGTLVAVSS
VL: B17 VL with S27G, M49V, G53A, S54T, S65F, G66A, S96V, S97R, W99V
B19: CnC2t1p1_G6 (antibody, V domains shown)
VH: B18 VH with N13K, S75P, R85G, L93V, S102A
VL: B17 VL with S27G, V29I, H41Y, M49I, G53A, S65F, G66A, S96V, S97R, W99V
B20: CnC2t1p1_D6 (antibody, V domains shown)
VH: EVQLVESGGGLVQPGRSLRLSCTASGFTFGDYAMSWFRQAPGKGLEWVGFIRSKAYGGTTEYAASVKGRFTISRDDSKSIAYLQMNSLKTEDTAVYYCTRVRRLWFGSYYYGMDVWGQGTTVTVSS
VL: not shown
B21: CnC2t1p1_E12 (antibody, V domains shown)
VH: B20 VH with A81V
VL: not shown
B22: FnC1t2p1_D4 (antibody, V domains shown)
VH: B7 VH
VL: B7 VL
B23: CnC2t1p1_B10 (antibody, V domains shown)
VH: QVQLVQSGAEVKKPGSSVKVSCKASGGTFSSYAISWVRQAPGQGLEWMGGIIPIFGTANYAQKFQGRVTITADKSTSTAYMELSSLRSEDTAVYYCARVSGYDSSGYWGDYWGQGTLVTVSS
VL: EIVLTQSPATLSLSPGERATLSCRASQSVSSYLAWYQQKPGQAPRLLIYDASNRATGIPARFSGSGSGTDFTLTISSLEPEDFAVYYCQQRSNWPPALTFGGGTKVEIK
B24: FnC1t1p2_A5 (antibody, V domains shown)
VH: QVQLVQSGAEVKKPGASVKVSCKASGYTFTSYDINWVRQATGQGLEWMGWMNPNSGNTGYAQKFQGRVTMTRNTSISTAYMELSSLRSEDTAVYYCARATTDCSSTSCWSLDFWSGYYTGGREKIFDYWGQGTLVTVSS
VL: not shown

The first test has as its target T1, prefusion stabilized SARS-CoV-2 S ectodomain (SARS-CoV-2, UniProt P0DTC2 14-1208).
T1 construct: also called SARS-CoV-2 spike ectodomain; ectodomain of the spike (S) homotrimer of SARS-CoV-2
Nature of the test: ELISA, coated S ectodomain [cont'd].
As to B1, the EC50 was 0.25 µg/mL. With B2, the EC50 was 0.02 µg/mL. The molecule B3 returned an EC50 of 0.22 µg/mL.

B4: the 50% effective concentration (EC50) stood at 0.04 µg/mL. B5 had an EC50 of 0.06 µg/mL. Take B6: the 50% effective concentration (EC50) was 0.04 µg/mL. In turn, B7 returned a half-maximal effective concentration (EC50) of 0.02 µg/mL. Molecule B8 came in with a 50% effective concentration (EC50) of 0.04 µg/mL.

For the next test, the target named is T1, prefusion stabilized SARS-CoV-2 S …. Description: ELISA, coated S ectodomain [cont'd]. The source holds these as a separate data set.
For the molecule B9, the response was half-maximal at 0.05 µg/mL (EC50).

With B10, the concentration giving a half-maximal response (EC50) came to 0.07 µg/mL.

In turn, B11 showed a 50% effective concentration (EC50) of 0.06 µg/mL. In turn, B12 gave an EC50 of 0.02 µg/mL.

Take B13: it took 0.33 µg/mL to reach a half-maximal effect (EC50).

For B14, the EC50 is 0.05 µg/mL.

For another test the target is unchanged. Nature of the test: ELISA, coated S ectodomain [cont'd]. The source holds these as a separate data set.
On to B15, for which the half-maximal effective concentration (EC50) was 0.03 µg/mL.

As to B16, the midpoint of the response, the EC50, lay at 0.03 µg/mL.

The next test has the same target. Nature of the test: ELISA, coated S ectodomain.
The molecule B17 came in with an EC50 of 0.03 µg/mL. B18 displayed a concentration giving a half-maximal response (EC50) of 0.13 µg/mL. B19: the concentration giving a half-maximal response (EC50) was 0.31 µg/mL.

In the case of B20, it took 0.03 µg/mL to reach a half-maximal effect (EC50). Molecule B21 came in with an EC50 of 0.03 µg/mL.

B22 showed a 50% effective concentration (EC50) of 0.02 µg/mL. In turn, B23 gave a 50% effective concentration (EC50) of 0.32 µg/mL. As to B24, the binding result is on record as “binds”.
